Data: patent US20220048967A1 (published 2022)
Numbered stars: 1 amine (or outer) side, 2 acyl side, 3 side chain; on linkers, the order of the positions; unused ones are H or OH. Square brackets hold non-standard residues; d marks the D form. Side chains are listed from the residue outwards. Ends that are not written are not given here. * marks the point of attachment. C20 diacid = O=C(O)CCCCCCCCCCCCCCCCCCC(=O)*; C18 diacid = O=C(O)CCCCCCCCCCCCCCCCC(=O)*; γGlu = O=C(O)[C@H](CCC(=O)[*:2])N[*:1]; AEEA = NCCOCCOCC(=O)O; Aib = CC(C)(N)C(=O)O

T1: human gastric inhibitory peptide receptor (GIPR) (human, UniProt P48546 22-466)
T1 sequence (looked up): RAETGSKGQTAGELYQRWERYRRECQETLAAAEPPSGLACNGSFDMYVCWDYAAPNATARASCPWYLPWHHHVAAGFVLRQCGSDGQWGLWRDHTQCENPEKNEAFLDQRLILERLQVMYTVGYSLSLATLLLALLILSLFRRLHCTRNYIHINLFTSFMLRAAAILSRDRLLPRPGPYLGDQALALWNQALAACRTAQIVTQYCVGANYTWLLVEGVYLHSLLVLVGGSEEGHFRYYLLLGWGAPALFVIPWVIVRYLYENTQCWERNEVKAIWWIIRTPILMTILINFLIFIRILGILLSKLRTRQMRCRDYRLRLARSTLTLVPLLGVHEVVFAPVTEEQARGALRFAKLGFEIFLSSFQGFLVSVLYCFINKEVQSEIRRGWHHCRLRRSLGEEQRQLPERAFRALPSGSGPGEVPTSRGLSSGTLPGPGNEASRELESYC


Key:
[1] = target: T1, human gastric inhibitory peptide …; test: cell-based or functional assay
[2] = target: human GLP-1 receptor (GLP-1R) (human, UniProt P43220 24-463); test: cell-based or functional assay

| Binder | hGIPR cAMP EC50 ratio [1] | hGIPR cAMP Rel EC50 [1] [nM] | hGLP1R cAMP EC50 ratio [2] | hGLP1R cAMP Rel EC50 [2] [nM] |
| --- | --- | --- | --- | --- |
| Y[Aib]EGTFTSDYSILLDKK([AEEA-AEEA-γGlu-C20 diacid])AQ[Aib]EFIEYLIAGGPSSG-NH2 (N-terminus assumed; SMILES CC[C@H](C)[C@H](NC(=O)[C@H](CC(C)C)NC(=O)[C@H](Cc1ccc(O)cc1)NC(=O)[C@H](CCC(=O)O)NC(=O)[C@@H](NC(=O)[C@H](Cc1ccccc1)NC(=O)[C@H](CCC(=O)O)NC(=O)C(C)(C)NC(=O)[C@H](CCC(N)=O)NC(=O)[C@H](C)NC(=O)[C@H](CCCCNC(=O)COCCOCCNC(=O)COCCOCCNC(=O)CC[C@H](NC(=O)CCCCCCCCCCCCCCCCCCC(=O)O)C(=O)O)NC(=O)[C@H](CCCCN)NC(=O)[C@H](CC(=O)O)NC(=O)[C@H](CC(C)C)NC(=O)[C@H](CC(C)C)NC(=O)[C@@H](NC(=O)[C@H](CO)NC(=O)[C@H](Cc1ccc(O)cc1)NC(=O)[C@H](CC(=O)O)NC(=O)[C@H](CO)NC(=O)[C@@H](NC(=O)[C@H](Cc1ccccc1)NC(=O)[C@@H](NC(=O)CNC(=O)[C@H](CCC(=O)O)NC(=O)C(C)(C)NC(=O)[C@@H](N)Cc1ccc(O)cc1)[C@@H](C)O)[C@@H](C)O)[C@@H](C)CC)[C@@H](C)CC)C(=O)N[C@@H](C)C(=O)NCC(=O)NCC(=O)N1CCC[C@H]1C(=O)N[C@@H](CO)C(=O)N[C@@H](CO)C(=O)NCC(N)=O) [Example 318] | 1.69 | 0.0547 | 0.482 | 0.124 |
| Y[Aib]EGTFTSDYSILLDKK([AEEA-AEEA-γGlu-C20 diacid])AQ[Aib]AFIEYLIAGGPSSG-NH2 (N-terminus assumed; SMILES CC[C@H](C)[C@H](NC(=O)[C@H](CC(C)C)NC(=O)[C@H](Cc1ccc(O)cc1)NC(=O)[C@H](CCC(=O)O)NC(=O)[C@@H](NC(=O)[C@H](Cc1ccccc1)NC(=O)[C@H](C)NC(=O)C(C)(C)NC(=O)[C@H](CCC(N)=O)NC(=O)[C@H](C)NC(=O)[C@H](CCCCNC(=O)COCCOCCNC(=O)COCCOCCNC(=O)CC[C@H](NC(=O)CCCCCCCCCCCCCCCCCCC(=O)O)C(=O)O)NC(=O)[C@H](CCCCN)NC(=O)[C@H](CC(=O)O)NC(=O)[C@H](CC(C)C)NC(=O)[C@H](CC(C)C)NC(=O)[C@@H](NC(=O)[C@H](CO)NC(=O)[C@H](Cc1ccc(O)cc1)NC(=O)[C@H](CC(=O)O)NC(=O)[C@H](CO)NC(=O)[C@@H](NC(=O)[C@H](Cc1ccccc1)NC(=O)[C@@H](NC(=O)CNC(=O)[C@H](CCC(=O)O)NC(=O)C(C)(C)NC(=O)[C@@H](N)Cc1ccc(O)cc1)[C@@H](C)O)[C@@H](C)O)[C@@H](C)CC)[C@@H](C)CC)C(=O)N[C@@H](C)C(=O)NCC(=O)NCC(=O)N1CCC[C@H]1C(=O)N[C@@H](CO)C(=O)N[C@@H](CO)C(=O)NCC(N)=O) [Example 317] | 1.01 | 0.0948 | 0.333 | 0.172 |
| YXEGTFTSDYSILLDKKAQXAFIEYLIEGGPSSGAPPPS (Aib2, (2-[2-(2-Amino-ethoxy)-ethoxy]-acetyl)2-(γ-Glu)-CO-(CH2)16-CO2H on K17, Aib20, C-terminal NH2) [Example 315] |  | 0.0408 |  | 0.0651 |
| YXEGTXTSDYSILLDKKAQXEFIEYLIAGGPSSG (Aib2, αMeF6, (2-[2-(2-Amino-ethoxy)-ethoxy]-acetyl)2-(γ-Glu)-CO-(CH2)16-CO2H on K17, Aib20, C-terminal NH2) [Example 310] | 5.56 | 0.0176 | 1.43 | 0.0283 |
| YXEGTXTSDYSILLDKKAQXEFIEYLIAGGPSSG (Aib2, αMeF(2F)6, (2-[2-(2-Amino-ethoxy)-ethoxy]-acetyl)2-(γ-Glu)-CO-(CH2)16-CO2H on K17, Aib20, C-terminal NH2) [Example 314] | 2.81 | 0.029 | 1.48 | 0.029 |
| YXEGTFTSDYSIXLDEKAQXAFIEYLIEGGPSSG (Aib2, αMeL13, (2-[2-(2-Amino-ethoxy)-ethoxy]-acetyl)2-(γ-Glu)-CO-(CH2)16-CO2H on K17, Aib20, C-terminal NH2) [Example 303] | 4.2 | 0.0254 | 0.602 | 0.104 |
| YXEGTFTSDYSIXLDKKAQXEFIEYLIAGGPSSG (Aib2, αMeL13, (2-[2-(2-Amino-ethoxy)-ethoxy]-acetyl)2-(γ-Glu)-CO-(CH2)16-CO2H on K17, Aib20, C-terminal NH2) [Example 306] | 3.97 | 0.0191 | 0.912 | 0.0711 |
| YXEGTFTSDYSIXLDKKAQXEFIEYLIEGGPSSG (Aib2, αMeL13, (2-[2-(2-Amino-ethoxy)-ethoxy]-acetyl)2-(γ-Glu)-CO-(CH2)16-CO2H on K17, Aib20, C-terminal NH2) [Example 304] | 2.68 | 0.0296 | 0.481 | 0.191 |
| YXEGTXTSDYSILLDKKAQXAFIEYLIAGGPSSG (Aib2, αMeF6, (2-[2-(2-Amino-ethoxy)-ethoxy]-acetyl)2-(γ-Glu)-CO-(CH2)16-CO2H on K17, Aib20, C-terminal NH2) [Example 309] | 1.64 | 0.0389 | 1.27 | 0.033 |
| YXEGTXTSDYSILLDKKAQXAFIEYLIAGGPSSG (Aib2, αMeF(2F)6, (2-[2-(2-Amino-ethoxy)-ethoxy]-acetyl)2-(γ-Glu)-CO-(CH2)16-CO2H on K17, Aib20, C-terminal NH2) [Example 313] | 2.87 | 0.0233 | 0.867 | 0.0388 |
| YXEGTXTSDYSILLDKKAQXEFIEYLIEGGPSSG (Aib2, αMeF6, (2-[2-(2-Amino-ethoxy)-ethoxy]-acetyl)2-(γ-Glu)-CO-(CH2)16-CO2H on K17, Aib20, C-terminal NH2) [Example 308] | 4.06 | 0.0262 | 1.45 | 0.0392 |
| YXEGTXTSDYSILLDEKAQXAFIEYLIEGGPSSG (Aib2, αMeF(2F)6, (2-[2-(2-Amino-ethoxy)-ethoxy]-acetyl)2-(γ-Glu)-CO-(CH2)16-CO2H on K17, Aib20, C-terminal NH2) [Example 311] | 3.5 | 0.0334 | 1.04 | 0.0393 |
| YXEGTXTSDYSILLDEKAQXAFIEYLIEGGPSSG (Aib2, αMeF6, (2-[2-(2-Amino-ethoxy)-ethoxy]-acetyl)2-(γ-Glu)-CO-(CH2)16-CO2H on K17, Aib20, C-terminal NH2) [Example 307] | 2.48 | 0.0285 | 1.29 | 0.0437 |
| YXEGTXTSDYSILLDKKAQXEFIEYLIEGGPSSG (Aib2, αMeF(2F)6, (2-[2-(2-Amino-ethoxy)-ethoxy]-acetyl)2-(γ-Glu)-CO-(CH2)16-CO2H on K17, Aib20, C-terminal NH2) [Example 312] | 4.76 | 0.0207 | 1.53 | 0.0262 |
| Y[Aib]EGTFTSDYSILLDKK([AEEA-AEEA-γGlu-C18 diacid])AQ[Aib]AFIEYLIAGGPSSGAPPPS-NH2 (N-terminus assumed; SMILES CC[C@H](C)[C@H](NC(=O)[C@H](CC(C)C)NC(=O)[C@H](Cc1ccc(O)cc1)NC(=O)[C@H](CCC(=O)O)NC(=O)[C@@H](NC(=O)[C@H](Cc1ccccc1)NC(=O)[C@H](C)NC(=O)C(C)(C)NC(=O)[C@H](CCC(N)=O)NC(=O)[C@H](C)NC(=O)[C@H](CCCCNC(=O)COCCOCCNC(=O)COCCOCCNC(=O)CC[C@H](NC(=O)CCCCCCCCCCCCCCCCC(=O)O)C(=O)O)NC(=O)[C@H](CCCCN)NC(=O)[C@H](CC(=O)O)NC(=O)[C@H](CC(C)C)NC(=O)[C@H](CC(C)C)NC(=O)[C@@H](NC(=O)[C@H](CO)NC(=O)[C@H](Cc1ccc(O)cc1)NC(=O)[C@H](CC(=O)O)NC(=O)[C@H](CO)NC(=O)[C@@H](NC(=O)[C@H](Cc1ccccc1)NC(=O)[C@@H](NC(=O)CNC(=O)[C@H](CCC(=O)O)NC(=O)C(C)(C)NC(=O)[C@@H](N)Cc1ccc(O)cc1)[C@@H](C)O)[C@@H](C)O)[C@@H](C)CC)[C@@H](C)CC)C(=O)N[C@@H](C)C(=O)NCC(=O)NCC(=O)N1CCC[C@H]1C(=O)N[C@@H](CO)C(=O)N[C@@H](CO)C(=O)NCC(=O)N[C@@H](C)C(=O)N1CCC[C@H]1C(=O)N1CCC[C@H]1C(=O)N1CCC[C@H]1C(=O)N[C@@H](CO)C(N)=O) [Example 316] | 3.75 | 0.024 | 0.644 | 0.122 |
